The values that follow come from the supplement of paper PMC9112550, “Optimization of the antimicrobial peptide Bac7 by deep mutational scanning” (BMC Biology, 2022).

This series deals with Escherichia coli TOP10. The experiment in a line: shrunken log2 fold change of peptide-encoding DNA abundance (4.5 h post-induction vs induction); higher = less antimicrobial activity (less host growth inhibition). Conditions: time post-induction: 4.5 h; library: site-saturation at positions 5, 18, 19, 20.
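Further: peptides expressed intracellularly from a pBAD plasmid library in pooled LB shake-flask culture, induced with 0.3% L-arabinose, DNA abundance read by NGS, three biological replicates, DESeq2 with apeglm shrinkage.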

Regarding RRIRSRPPRLPRPRPRPWQQPRP, the “shrunken log2 fold change” value was found to be 0.179.
Consider RRIRLRPPRLPRPRPRPFVLPRP, for which the “shrunken log2 fold change” value was -0.513.
Regarding RRIRCRPPRLPRPRPRPQNEPRP, the “shrunken log2 fold change” value was -0.389.
In the case of RRIRIRPPRLPRPRPRPAIPPRP, the “shrunken log2 fold change” value is -0.169.
For RRIRGRPPRLPRPRPRPFHPPRP, the “shrunken log2 fold change” value was -0.124.
The figure for RRIRSRPPRLPRPRPRPYAKPRP is -0.123; for RRIRLRPPRLPRPRPRPHRHPRP it is -0.361.
Consider RRIRPRPPRLPRPRPRPLAWPRP, for which the “shrunken log2 fold change” value stood at 0.439.
To RRIRIRPPRLPRPRPRPCEQPRP belongs 0.0927; to RRIRNRPPRLPRPRPRPHFNPRP, -0.608.
As to RRIRQRPPRLPRPRPRPGEKPRP, the “shrunken log2 fold change” value was 0.139.
Take RRIRGRPPRLPRPRPRPQFVPRP: the “shrunken log2 fold change” value was found to be 0.0536.
The figure for RRIRLRPPRLPRPRPRPRVKPRP is -0.0432; for RRIRFRPPRLPRPRPRPNYVPRP it is -0.492; for RRIRNRPPRLPRPRPRPTIAPRP it is -0.277.
To RRIRQRPPRLPRPRPRPQLYPRP belongs 0.119.
For RRIRGRPPRLPRPRPRPERRPRP, the “shrunken log2 fold change” value was determined as 0.277.
To RRIRARPPRLPRPRPRPYHGPRP belongs -1.67; to RRIRQRPPRLPRPRPRPNRVPRP, -0.107; to RRIRIRPPRLPRPRPRPNFHPRP, -0.52.
With RRIRPRPPRLPRPRPRPYQQPRP, the “shrunken log2 fold change” value is -0.139.
To RRIRLRPPRLPRPRPRPTKVPRP belongs -0.0842; to RRIRSRPPRLPRPRPRPSPEPRP, 0.0709.
Regarding RRIRPRPPRLPRPRPRPGGHPRP, the “shrunken log2 fold change” value was found to be 0.372.
Regarding RRIRKRPPRLPRPRPRPTNMPRP, the “shrunken log2 fold change” value was -0.155.
To RRIRDRPPRLPRPRPRPGNVPRP belongs -0.0882; to RRIRFRPPRLPRPRPRPKSFPRP, -0.0388.
As for RRIRGRPPRLPRPRPRPIQRPRP, the “shrunken log2 fold change” value was 0.0933.
For RRIRMRPPRLPRPRPRPGISPRP, the “shrunken log2 fold change” value came out at 0.0451.
The figure for RRIRDRPPRLPRPRPRPKKFPRP is 0.117.
The figure for RRIRNRPPRLPRPRPRPQHRPRP is -0.215; for RRIRQRPPRLPRPRPRPYHYPRP it is -0.711.
Take RRIRMRPPRLPRPRPRPDCWPRP: the “shrunken log2 fold change” value worked out at 1.96.
The figure for RRIRPRPPRLPRPRPRPRWHPRP is 0.186; for RRIRNRPPRLPRPRPRPWWPPRP it is -0.218.
Turning to RRIRRRPPRLPRPRPRPFIHPRP, the “shrunken log2 fold change” value was -0.18.
Turning to RRIRVRPPRLPRPRPRPIGYPRP, the “shrunken log2 fold change” value is 0.117.
As for RRIRFRPPRLPRPRPRPRWCPRP, the “shrunken log2 fold change” value is 0.14.
To RRIRMRPPRLPRPRPRPKRWPRP belongs 1.51; to RRIRYRPPRLPRPRPRPYFNPRP, -1.33; to RRIRDRPPRLPRPRPRPNIHPRP, -0.214.
To RRIRPRPPRLPRPRPRPIHWPRP belongs 0.225; to RRIRNRPPRLPRPRPRPFACPRP, 0.0153; to RRIRLRPPRLPRPRPRPIKQPRP, -0.00202.
As for RRIRLRPPRLPRPRPRPIMMPRP, the “shrunken log2 fold change” value is -0.0614.
Consider RRIRVRPPRLPRPRPRPFTHPRP, for which the “shrunken log2 fold change” value was -0.222.
Turning to RRIRWRPPRLPRPRPRPVCTPRP, the “shrunken log2 fold change” value worked out at 0.26.
On to RRIRVRPPRLPRPRPRPYQIPRP, for which the “shrunken log2 fold change” value was determined as 0.043.
RRIRDRPPRLPRPRPRPAKRPRP: the “shrunken log2 fold change” value is -0.161.
On to RRIRARPPRLPRPRPRPGKTPRP, for which the “shrunken log2 fold change” value came to 0.312.
The figure for RRIRYRPPRLPRPRPRPESSPRP is -0.0327.
To RRIRNRPPRLPRPRPRPLDDPRP belongs -0.0578.
Consider RRIRYRPPRLPRPRPRPITLPRP, for which the “shrunken log2 fold change” value was -0.323.
In the case of RRIRSRPPRLPRPRPRPGFEPRP, the “shrunken log2 fold change” value worked out at 0.418.
In the case of RRIRKRPPRLPRPRPRPWRDPRP, the “shrunken log2 fold change” value was found to be 0.188.
RRIRARPPRLPRPRPRPGDSPRP: the “shrunken log2 fold change” value worked out at 0.339.
Turning to RRIRVRPPRLPRPRPRPMEVPRP, the “shrunken log2 fold change” value was -0.997.
For the sequence RRIRCRPPRLPRPRPRPRYQPRP, the “shrunken log2 fold change” value is -0.319.
To RRIRVRPPRLPRPRPRPKLWPRP belongs 0.127; to RRIRYRPPRLPRPRPRPKTPPRP, 0.103.
To RRIRGRPPRLPRPRPRPHHHPRP belongs -0.139; to RRIRDRPPRLPRPRPRPNFYPRP, -0.109; to RRIRRRPPRLPRPRPRPKWKPRP, -0.0205.
The figure for RRIRWRPPRLPRPRPRPIMSPRP is -0.161; for RRIRPRPPRLPRPRPRPTCHPRP it is 1.02.
For the sequence RRIRTRPPRLPRPRPRPKGDPRP, the “shrunken log2 fold change” value turned out to be 0.00199.
The figure for RRIRPRPPRLPRPRPRPPMEPRP is 0.127; for RRIRVRPPRLPRPRPRPVGLPRP it is 0.216.
RRIRWRPPRLPRPRPRPTFTPRP: the “shrunken log2 fold change” value was determined as 0.195.
The figure for RRIRWRPPRLPRPRPRPGFGPRP is 0.651; for RRIRRRPPRLPRPRPRPHQMPRP it is 0.19.
To RRIRLRPPRLPRPRPRPYGPPRP belongs -0.161; to RRIRSRPPRLPRPRPRPQCWPRP, 0.24; to RRIRRRPPRLPRPRPRPTNGPRP, -0.168.
The figure for RRIRERPPRLPRPRPRPTNAPRP is -0.0659; for RRIRNRPPRLPRPRPRPCEKPRP it is -0.0478.
RRIRARPPRLPRPRPRPYGNPRP: the “shrunken log2 fold change” value is -0.0109.
The figure for RRIRRRPPRLPRPRPRPIPTPRP is 0.063.
To RRIRQRPPRLPRPRPRPRKWPRP belongs 0.832; to RRIRLRPPRLPRPRPRPDRSPRP, -0.0286.
With RRIRMRPPRLPRPRPRPMWCPRP, the “shrunken log2 fold change” value was 0.283.
As to RRIRCRPPRLPRPRPRPEMAPRP, the “shrunken log2 fold change” value was found to be 0.532.
RRIRYRPPRLPRPRPRPSDIPRP: the “shrunken log2 fold change” value was -0.0657.
Turning to RRIRLRPPRLPRPRPRPHVKPRP, the “shrunken log2 fold change” value is -0.333.
With RRIRARPPRLPRPRPRPECNPRP, the “shrunken log2 fold change” value worked out at 0.807.
To RRIRPRPPRLPRPRPRPHCPPRP belongs 0.0157.
With RRIRHRPPRLPRPRPRPTKPPRP, the “shrunken log2 fold change” value came to 0.0121.
Take RRIRHRPPRLPRPRPRPLISPRP: the “shrunken log2 fold change” value was -0.387.
The figure for RRIRRRPPRLPRPRPRPDYNPRP is -0.0973.
With RRIRFRPPRLPRPRPRPLVLPRP, the “shrunken log2 fold change” value is -0.251.
The figure for RRIRARPPRLPRPRPRPWDMPRP is 0.187.
To RRIRLRPPRLPRPRPRPNREPRP belongs -0.118.
To RRIRARPPRLPRPRPRPQVRPRP belongs -0.0207.
Consider RRIRARPPRLPRPRPRPHDDPRP, for which the “shrunken log2 fold change” value was -0.0805.
To RRIRYRPPRLPRPRPRPTKMPRP belongs -0.22; to RRIRQRPPRLPRPRPRPMFYPRP, -0.503; to RRIRHRPPRLPRPRPRPVEPPRP, 0.109.
On to RRIRRRPPRLPRPRPRPDHNPRP, for which the “shrunken log2 fold change” value was found to be 0.121.
To RRIRHRPPRLPRPRPRPAAAPRP belongs 0.443.
With RRIRRRPPRLPRPRPRPQWEPRP, the “shrunken log2 fold change” value was -0.0504.
Consider RRIRHRPPRLPRPRPRPRIIPRP, for which the “shrunken log2 fold change” value was -1.44.
To RRIRYRPPRLPRPRPRPAQVPRP belongs -0.0734.
The figure for RRIRWRPPRLPRPRPRPAVYPRP is -0.682.
The figure for RRIRYRPPRLPRPRPRPKDNPRP is -0.75.
With RRIRRRPPRLPRPRPRPHHYPRP, the “shrunken log2 fold change” value was -0.168.
RRIRKRPPRLPRPRPRPAIGPRP: the “shrunken log2 fold change” value amounted to 1.04.
Consider RRIRYRPPRLPRPRPRPYDGPRP, for which the “shrunken log2 fold change” value is -0.155.
To RRIRSRPPRLPRPRPRPNRFPRP belongs -0.0804; to RRIRDRPPRLPRPRPRPVSGPRP, 0.088; to RRIRFRPPRLPRPRPRPAWRPRP, 0.765.
To RRIRDRPPRLPRPRPRPSQVPRP belongs -0.426; to RRIRERPPRLPRPRPRPRRDPRP, 0.0233.
To RRIRNRPPRLPRPRPRPSYAPRP belongs -0.387; to RRIRQRPPRLPRPRPRPGFMPRP, -0.176.
Consider RRIRVRPPRLPRPRPRPENRPRP, for which the “shrunken log2 fold change” value is -0.221.
As for RRIRTRPPRLPRPRPRPEPRPRP, the “shrunken log2 fold change” value turned out to be 0.482.
As for RRIRKRPPRLPRPRPRPYQIPRP, the “shrunken log2 fold change” value was -0.000276.
The figure for RRIRSRPPRLPRPRPRPMMSPRP is 0.0638.
On to RRIRDRPPRLPRPRPRPCYLPRP, for which the “shrunken log2 fold change” value was -0.345.
On to RRIRARPPRLPRPRPRPVYFPRP, for which the “shrunken log2 fold change” value is -0.135.
Take RRIRYRPPRLPRPRPRPHFYPRP: the “shrunken log2 fold change” value was -0.662.
As to RRIRGRPPRLPRPRPRPKRQPRP, the “shrunken log2 fold change” value came to 0.377.
To RRIRNRPPRLPRPRPRPLAMPRP belongs -0.21; to RRIRDRPPRLPRPRPRPDGIPRP, -0.0113.
Turning to RRIRSRPPRLPRPRPRPMDCPRP, the “shrunken log2 fold change” value was determined as 0.00208.
